Reference: patent US20200354457A1 (Hoffmann-La Roche, published 2020)

B1: LAG3 P11A2 aVH domain (VHH)
VHH: EVQLVESGGGLVQPGGSLRLSCAASSFNIKDTYIGWVRRAPGKGTELVAEIACHEGTTRYADSVKGRFTISCDTSKNTAYLQMNSLRAEDTAVYYCANTEYDDIFDYWGQGTTVTVSS
B2: LAG3 21B11 aVH domain (VHH)
VHH: EVQLVESGGGLVQPGGSLRLSCAASGFNIKDTCIGWVRRAPGKGTELVAEICQDIGYTRYADSVKGRFTISADTSKNTAYLQMNSLRAEDTAVYYCAADESVDNFKYWGQGTTVTVSS
B3: LAG3 P11E2 aVH domain (VHH)
VHH: EVQLVESGGGLVQPGGSLRLSCAASGFNIKDTCIGWVRRAPGKGTELVAEICDDIGYTRYADSVKGRFTISADTSKNTAYLQMNSLRAEDTAVYYCASQEHQWSFKYWGQGTTVTVSS
B4: LAG3 P9G1 aVH domain (VHH)
VHH: EVQLVESGGGLVQPGGSLRLSCAASGFNIKDTCIGWVRRAPGKGTELVAEICQDIGYTRYADSVKGRFTISADTSKNTAYLQMNSLRAEDTAVYYCAGEEGATNFKYWGQGTTVTVSS
B5: LAG3 9B4 aVH domain (VHH)
VHH: EVQLVESGGGLVQPGGSLRLSCAASGFNIKDTCIGWVRRAPGKGTELVAEICQDIGYTRYADSVKGRFTISADTSKNTAYLQMNSLRAEDTAVYYCAAVEVAEYFEYWGQGTTVTVSS
B6: LAG3 P10C3 aVH domain (VHH)
VHH: EVQLVESGGGLVQPGGSLRLSCAASGFNIKDTCIGWVRRAPGKGTELVAEICTDAGYTRYADSVKGRFTISADTSKNTAYLQMNSLRAEDTAVYYCAASESPSGFRYWGQGTTVTVSS
B7: LAG3 P10D1 aVH domain (VHH)
VHH: EVQLVESGGGLVQPGGSLRLSCAASGFSIKDTCIAWVRRAPGKGTELVAEICEDIGYTRYADSVKGRFTISADTSKNTAYLQMNSLRAEDTAVYYCAAKEAGVGFDYWGQGTTVTVSS
notes: also called P110D1
B8: LAG3 P21A03 aVH domain (VHH)
VHH: EVQLVESGGGLVQPGGSLRLSCAASGFNIKDTCIGWVRRAPGKGTELVAEICEDIGYTRYADSVKGRFTISADTSKNTAYLQMNSLRAEDTAVYYCAANEHSVGFNYWGQGTTVTVSS
notes: also called 21A3
B9: LAG3 17D7 aVH domain (VHH)
VHH: EVQLVESGGGLVQPGGSLRLSCAASGFNIKDTCIGWVRRAPGKGTELVAEICTDIGYTRYADSVKGRFTISADTSKNTAYLQMNSLRAEDTAVYYCAAGEGSSGFHYWGQGTTVTVSS
B10: LAG3 19G3 aVH domain (VHH)
VHH: EVQLVESGGGLVQPGGSLRLSCAASGFNIKYQCIGWVRRAPGKGTELVAEICSYDGYTRYADSVKGRFTISADTSKNTAYLQMNSLRAEDTAVYYCAAEESVEGFIYWGQGTTVTVSS
notes: also called P19G3
B11: LAG3 P11E9 aVH domain (VHH)
VHH: EVQLVESGGGLVQPGGSLRLSCAASGFNIKDTCIGWVRRAPGKGTELVAEICHDIGYTRYADSVKGRFTISADTSKNTAYLQMNSLRAEDTAVYYCAAEEHVASFEYWGQGTTVTVSS

Each binder was assayed against T1, soluble human Lag3-IgG1-Fc with biotinylated C-terminal Avi-tag (human, biotin on the C-terminal Avi-tag) (assay: SPR (ProteOn XPR36), biotinylated LAG3-Fc captured on NLC chip, purified aVH as analyte, 25 C;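 further: One-shot kinetics in PBST running buffer, rates fitted by 1:1 Langmuir model fitting association and dissociation together, KD as koff/kon, biotinylated Fc surface as negative control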).
T1 construct: also called LAG3-Fc-avi; biotinylated LAG3-Fc antigen
T1 sequence (chain, as listed by the source limits assumed): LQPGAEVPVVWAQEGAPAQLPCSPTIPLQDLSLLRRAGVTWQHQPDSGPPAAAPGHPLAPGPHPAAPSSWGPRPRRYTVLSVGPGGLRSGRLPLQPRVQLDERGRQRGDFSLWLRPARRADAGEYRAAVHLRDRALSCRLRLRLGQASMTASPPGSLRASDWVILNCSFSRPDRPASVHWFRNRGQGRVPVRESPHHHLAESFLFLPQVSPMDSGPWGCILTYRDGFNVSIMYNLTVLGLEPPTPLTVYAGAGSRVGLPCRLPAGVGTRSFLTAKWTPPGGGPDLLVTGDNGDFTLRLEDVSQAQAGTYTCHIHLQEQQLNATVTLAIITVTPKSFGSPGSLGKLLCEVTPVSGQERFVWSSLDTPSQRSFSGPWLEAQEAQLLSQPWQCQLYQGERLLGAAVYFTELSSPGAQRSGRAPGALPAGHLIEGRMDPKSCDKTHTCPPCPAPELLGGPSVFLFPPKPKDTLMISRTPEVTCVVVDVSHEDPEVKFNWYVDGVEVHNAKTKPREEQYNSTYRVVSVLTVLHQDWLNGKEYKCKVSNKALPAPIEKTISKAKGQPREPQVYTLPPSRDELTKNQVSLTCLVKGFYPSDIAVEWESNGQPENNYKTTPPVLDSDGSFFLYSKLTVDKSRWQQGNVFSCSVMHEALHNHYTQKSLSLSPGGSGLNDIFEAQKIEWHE
B1 gave a Kd of 55 nM, a koff of 0.0138 s⁻¹ and a kon of 251000 M⁻¹ s⁻¹. B2 showed a Kd of 43 nM, a koff of 0.00217 s⁻¹ and a kon of 62700 M⁻¹ s⁻¹. B3 was tested, and the Kd was 36.7 nM, the koff was 0.00157 s⁻¹ and the kon was 42800 M⁻¹ s⁻¹. B4 gave a Kd of 5.1 nM, a koff of 0.000829 s⁻¹ and a kon of 162000 M⁻¹ s⁻¹. With B5 the Kd was 86 nM, the koff was 0.00314 s⁻¹ and the kon was 36500 M⁻¹ s⁻¹. Binder B6 has a Kd of 38.5 nM, a koff of 0.00217 s⁻¹ and a kon of 56200 M⁻¹ s⁻¹. In the case of B7, the Kd is reported as 27 nM, the koff is reported as 0.00383 s⁻¹ and the kon is reported as 144000 M⁻¹ s⁻¹. In the case of B8, the Kd is reported as 13.7 nM, the koff is reported as 0.000387 s⁻¹ and the kon is reported as 28200 M⁻¹ s⁻¹. B9 showed a Kd of 311 nM, a koff of 0.00493 s⁻¹ and a kon of 15900 M⁻¹ s⁻¹. B10 gave a Kd of 766 nM, a koff of 0.00466 s⁻¹ and a kon of 6080 M⁻¹ s⁻¹. Binder B11 has a Kd of 6.81 nM, a koff of 0.000656 s⁻¹ and a kon of 96300 M⁻¹ s⁻¹.
